US11746139B2, “IL-7Rαγc binding compounds” (MEDIKINE, INC., priority 2020, dated 2023)
pIC50: −log10 of the molar value.

Assays:
IL-7Rα = IL-7Rα (Homo sapiens, UniProt P16871); test: Competition binding ELISA with bn407::NA-HRP precomplex; settings: bn407:NA-HRP 10 nM final; read-out: Competitive Binding ELISA bn407:NA-HRP (10 nMf) IC50 M
Rγc subunit = molecular target: T1, Rγc subunit (Homo sapiens, UniProt P31785); test: Phage competitive binding assay characterizing the Rγc ligand binding site; settings: for Competition with Phage Clone SEQ ID NO: 198 (Family 1A) for binding to the Rγc subunit: phage clone 198, immobilized Rγc ECD; for Competition with Phage Clone SEQ ID NO: 224 (Family 1B) for binding to the Rγc subunit: phage clone 224, immobilized Rγc ECD; for Competition with Phage Clone SEQ ID NO: 236 (Family 2) for binding to the Rγc subunit: phage clone 236, immobilized Rγc ECD; for Competition with Phage Clone SEQ ID NO: 248 (Family 3) for binding to the Rγc subunit: phage clone 248, immobilized Rγc ECD; for Competition with Phage Clone SEQ ID NO: 266 (Family 4) for binding to the Rγc subunit: phage clone 266, immobilized Rγc ECD; for Competition with Phage Clone SEQ ID NO: 930 (Family 5) for binding to the Rγc subunit: phage clone 930, immobilized Rγc ECD
T1 construct: purchased ACRObiosystems, Inc. ILG-H5256
T1 sequence (P31785 23-254): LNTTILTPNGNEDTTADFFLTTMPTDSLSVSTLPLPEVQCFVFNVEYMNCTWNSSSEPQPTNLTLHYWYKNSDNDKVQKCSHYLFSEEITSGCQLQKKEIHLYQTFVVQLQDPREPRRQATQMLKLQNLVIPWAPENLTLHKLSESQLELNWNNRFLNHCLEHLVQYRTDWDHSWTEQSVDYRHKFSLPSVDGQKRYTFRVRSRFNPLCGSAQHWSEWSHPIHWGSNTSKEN

IL-7Rα subunit = IL-7Rα subunit (Homo sapiens, UniProt P16871); test: Phage competitive binding assay characterizing the IL-7Rα ligand binding site
Sequence of IL-7Rα subunit (P16871 21-236): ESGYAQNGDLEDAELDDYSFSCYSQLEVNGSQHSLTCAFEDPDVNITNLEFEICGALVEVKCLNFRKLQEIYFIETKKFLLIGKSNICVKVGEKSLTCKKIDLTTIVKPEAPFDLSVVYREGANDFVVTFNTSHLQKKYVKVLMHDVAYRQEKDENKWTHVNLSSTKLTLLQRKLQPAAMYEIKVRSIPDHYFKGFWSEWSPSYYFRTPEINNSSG

Sequence of IL-7Rα (P16871 21-236): as above

| Compound | pIC50 (IL-7Rα) | Competition with Phage Clone SEQ ID NO: 930 (Family 5) for binding to the Rγc subunit (Rγc subunit) | Competition with Phage Clone SEQ ID NO: 198 (Family 1A) for binding to the Rγc subunit (Rγc subunit) | Competition with Phage Clone SEQ ID NO: 224 (Family 1B) for binding to the Rγc subunit (Rγc subunit) | Competition with Phage Clone SEQ ID NO: 236 (Family 2) for binding to the Rγc subunit (Rγc subunit) | Competition with Phage Clone SEQ ID NO: 248 (Family 3) for binding to the Rγc subunit (Rγc subunit) | Competition with Phage Clone SEQ ID NO: 266 (Family 4) for binding to the Rγc subunit (Rγc subunit) | also measured |
| --- | --- | --- | --- | --- | --- | --- | --- | --- |
| CC[C@H](C)[C@H](N)C(=O)N1CCC[C@H]1C(=O)N[C@@H](Cc1c[nH]c2ccccc12)C(=O)N[C@H]1CSSC[C@@H](C(=O)N[C@@H](C)C(=O)N[C@@H](Cc2ccccc2)C(=O)N[C@@H](CC(C)C)C(=O)N[C@@H](CCCNC(=N)N)C(=O)N[C@@H](CCC(N)=O)C(=O)N[C@@H](CCSC)C(=O)NCC(=O)NCC(=O)O)NC(=O)[C@H](CCC(N)=O)NC(=O)[C@H](CC(C)C)NC(=O)CNC(=O)CNC(=O)[C@@H]2CCCN2C(=O)[C@H](CC(=O)O)NC(=O)[C@H](CC(C)C)NC(=O)[C@H]([C@@H](C)O)NC1=O [SEQ ID NO: 422, I P W C T L D P G G L Q C A F L R Q M] | 6.04 |  |  |  |  |  |  |  |
| S L L K C Y N A S T C A S V F [SEQ ID NO: 930] |  | + (Rγc ligand competes with phage binding.) | −^2 | − | − | − | − |  |
| V V C Q D W E G V E L C W Q [SEQ ID NO: 965] |  |  |  |  |  |  |  | Competition with Phage Clone SEQ ID NO: 5 (Family 1) for binding to the IL-7Rα subunit (IL-7Rα subunit; phage clone 5, immobilized IL-7Rα ECD): 0; Competition with Phage Clone SEQ ID NO: 43 (Family 3A) for binding to the IL-7Rα subunit (IL-7Rα subunit; phage clone 43, immobilized IL-7Rα ECD): 0; Competition with Phage Clone SEQ ID NO: 104 (Family 3B) for binding to the IL-7Rα subunit (IL-7Rα subunit; phage clone 104, immobilized IL-7Rα ECD): 0; Competition with Phage Clone SEQ ID NO: 313 (Family 2) for binding to the IL-7Rα subunit (IL-7Rα subunit; phage clone 313, immobilized IL-7Rα ECD): 0; Competition with Phage Clone SEQ ID NO: 965 (N/A) for binding to the IL-7Rα subunit (IL-7Rα subunit; phage clone 965, immobilized IL-7Rα ECD): 0 |
| CC[C@H](C)[C@H](N)C(=O)N1CCC[C@H]1C(=O)N[C@@H](Cc1c[nH]c2ccccc12)C(=O)N[C@H]1CSSC[C@@H](C(=O)N[C@@H](C)C(=O)N[C@@H](Cc2c[nH]c3ccccc23)C(=O)N[C@@H](CC(C)C)C(=O)N[C@@H](Cc2c[nH]cn2)C(=O)N[C@@H](CCC(N)=O)C(=O)N[C@@H](CCSC)C(=O)NCC(=O)NCC(=O)O)NC(=O)[C@H](CCC(N)=O)NC(=O)[C@H](CC(C)C)NC(=O)CNC(=O)CNC(=O)[C@@H]2CCCN2C(=O)[C@H](CC(=O)O)NC(=O)[C@H](CC(C)C)NC(=O)[C@H]([C@@H](C)O)NC1=O [SEQ ID NO: 430, I P W C T L D P G G L Q C A W H K Q M] | 6.17 |  |  |  |  |  |  |  |
| CC[C@H](C)[C@H](N)C(=O)N1CCC[C@H]1C(=O)N[C@@H](Cc1c[nH]c2ccccc12)C(=O)N[C@H]1CSSC[C@@H](C(=O)N[C@@H](C)C(=O)N[C@@H](Cc2c[nH]c3ccccc23)C(=O)N[C@@H](CC(C)C)C(=O)N[C@@H](CCCNC(=N)N)C(=O)N[C@@H](CCC(N)=O)C(=O)N[C@@H](CCSC)C(=O)NCC(=O)NCC(=O)O)NC(=O)[C@H](CCC(N)=O)NC(=O)[C@H](CC(C)C)NC(=O)CNC(=O)CNC(=O)[C@@H]2CCCN2C(=O)[C@H](CC(=O)O)NC(=O)[C@H](CC(C)C)NC(=O)[C@H]([C@@H](C)O)NC1=O [SEQ ID NO: 420, I P W C T L D P G G L Q C A W L R Q M] | 6.15 |  |  |  |  |  |  |  |
| CC[C@H](C)[C@H](N)C(=O)N1CCC[C@H]1C(=O)N[C@@H](Cc1c[nH]c2ccccc12)C(=O)N[C@H]1CSSC[C@@H](C(=O)N[C@@H](C)C(=O)N[C@@H](Cc2c[nH]c3ccccc23)C(=O)N[C@H](C(=O)N[C@@H](CCCNC(=N)N)C(=O)N[C@@H](CCC(N)=O)C(=O)N[C@@H](CCSC)C(=O)NCC(=O)NCC(=O)O)C(C)C)NC(=O)[C@H](CCC(N)=O)NC(=O)[C@H](CC(C)C)NC(=O)CNC(=O)CNC(=O)[C@@H]2CCCN2C(=O)[C@H](CC(=O)O)NC(=O)[C@H](CC(C)C)NC(=O)[C@H]([C@@H](C)O)NC1=O [SEQ ID NO: 427, I P W C T L D P G G L Q C A W V R Q M] | 6.39 |  |  |  |  |  |  |  |
| R T C T E W E N V V L C W V [SEQ ID NO: 202] |  | − | +^1 (Rγc ligand competes with phage binding.) | + (Rγc ligand competes with phage binding.) | + (Rγc ligand competes with phage binding.) | + (Rγc ligand competes with phage binding.) | + (Rγc ligand competes with phage binding.) |  |
| Y D C R I A Q V G E L C D L [SEQ ID NO: 58, IL-2Rβ Ligand, reference compound] |  | − | − | − | − | − | − | Competition for binding to the binding site with the group of Rγc ligands (Rγc subunit): does not compete |

Now from value to compound, other results behind:

| pIC50 (IL-7Rα) | Competition with Phage Clone SEQ ID NO: 930 (Family 5) for binding to the Rγc subunit (Rγc subunit) | Compound | Competition with Phage Clone SEQ ID NO: 198 (Family 1A) for binding to the Rγc subunit (Rγc subunit) | Competition with Phage Clone SEQ ID NO: 224 (Family 1B) for binding to the Rγc subunit (Rγc subunit) | Competition with Phage Clone SEQ ID NO: 236 (Family 2) for binding to the Rγc subunit (Rγc subunit) | Competition with Phage Clone SEQ ID NO: 248 (Family 3) for binding to the Rγc subunit (Rγc subunit) | Competition with Phage Clone SEQ ID NO: 266 (Family 4) for binding to the Rγc subunit (Rγc subunit) | also measured |
| --- | --- | --- | --- | --- | --- | --- | --- | --- |
| 6.03 |  | CC[C@H](C)[C@H](N)C(=O)N1CCC[C@H]1C(=O)N[C@@H](Cc1c[nH]c2ccccc12)C(=O)N[C@H]1CSSC[C@@H](C(=O)N[C@@H](C)C(=O)N[C@@H](Cc2c[nH]c3ccccc23)C(=O)N[C@@H](CC(C)C)C(=O)N[C@@H](CCCNC(=N)N)C(=O)N[C@@H](CCC(N)=O)C(=O)N[C@@H](C)C(=O)NCC(=O)NCC(=O)O)NC(=O)[C@H](CCC(N)=O)NC(=O)[C@H](CC(C)C)NC(=O)CNC(=O)CNC(=O)[C@@H]2CCCN2C(=O)[C@H](CC(=O)O)NC(=O)[C@H](CC(C)C)NC(=O)[C@H]([C@@H](C)O)NC1=O [SEQ ID NO: 432, I P W C T L D P G G L Q C A W L R Q A] |  |  |  |  |  |  |
| 5.82 |  | CC[C@H](C)[C@H](N)C(=O)N1CCC[C@H]1C(=O)N[C@@H](Cc1c[nH]c2ccccc12)C(=O)N[C@H]1CSSC[C@@H](C(=O)N[C@@H](C)C(=O)N[C@@H](Cc2c[nH]cn2)C(=O)N[C@@H](CC(C)C)C(=O)N[C@@H](CCCNC(=N)N)C(=O)N[C@@H](CCC(N)=O)C(=O)N[C@@H](CCSC)C(=O)NCC(=O)NCC(=O)O)NC(=O)[C@H](CCC(N)=O)NC(=O)[C@H](CC(C)C)NC(=O)CNC(=O)CNC(=O)[C@@H]2CCCN2C(=O)[C@H](CC(=O)O)NC(=O)[C@H](CC(C)C)NC(=O)[C@H]([C@@H](C)O)NC1=O [SEQ ID NO: 424, I P W C T L D P G G L Q C A H L R Q M] |  |  |  |  |  |  |
| 6.31 |  | CC[C@H](C)[C@H](N)C(=O)N1CCC[C@H]1C(=O)N[C@@H](Cc1c[nH]c2ccccc12)C(=O)N[C@H]1CSSC[C@@H](C(=O)N[C@@H](C)C(=O)N[C@@H](Cc2c[nH]c3ccccc23)C(=O)N[C@@H](CC(C)C)C(=O)N[C@@H](C)C(=O)N[C@@H](CCC(N)=O)C(=O)N[C@@H](CCSC)C(=O)NCC(=O)NCC(=O)O)NC(=O)[C@H](CCC(N)=O)NC(=O)[C@H](CC(C)C)NC(=O)CNC(=O)CNC(=O)[C@@H]2CCCN2C(=O)[C@H](CC(=O)O)NC(=O)[C@H](CC(C)C)NC(=O)[C@H]([C@@H](C)O)NC1=O [SEQ ID NO: 428, I P W C T L D P G G L Q C A W L A Q M] |  |  |  |  |  |  |
| 6.42 |  | CC[C@H](C)[C@H](N)C(=O)N1CCC[C@H]1C(=O)N[C@@H](Cc1c[nH]c2ccccc12)C(=O)N[C@H]1CSSC[C@@H](C(=O)N[C@@H](C)C(=O)N[C@@H](Cc2c[nH]c3ccccc23)C(=O)N[C@H](C(=O)N[C@@H](CCCNC(=N)N)C(=O)N[C@@H](CCC(N)=O)C(=O)N[C@@H](CCSC)C(=O)NCC(=O)NCC(=O)O)[C@@H](C)CC)NC(=O)[C@H](CCC(N)=O)NC(=O)[C@H](CC(C)C)NC(=O)CNC(=O)CNC(=O)[C@@H]2CCCN2C(=O)[C@H](CC(=O)O)NC(=O)[C@H](CC(C)C)NC(=O)[C@H]([C@@H](C)O)NC1=O [SEQ ID NO: 426, I P W C T L D P G G L Q C A W I R Q M] |  |  |  |  |  |  |
| 5.73 |  | CC[C@H](C)[C@H](N)C(=O)N1CCC[C@H]1C(=O)N[C@@H](Cc1c[nH]c2ccccc12)C(=O)N[C@H]1CSSC[C@@H](C(=O)N[C@@H](C)C(=O)N[C@@H](Cc2c[nH]c3ccccc23)C(=O)N[C@@H](C)C(=O)N[C@@H](CCCNC(=N)N)C(=O)N[C@@H](CCC(N)=O)C(=O)N[C@@H](CCSC)C(=O)NCC(=O)NCC(=O)O)NC(=O)[C@H](CCC(N)=O)NC(=O)[C@H](CC(C)C)NC(=O)CNC(=O)CNC(=O)[C@@H]2CCCN2C(=O)[C@H](CC(=O)O)NC(=O)[C@H](CC(C)C)NC(=O)[C@H]([C@@H](C)O)NC1=O [SEQ ID NO: 425, I P W C T L D P G G L Q C A W A R Q M] |  |  |  |  |  |  |
|  | − | M C W L E W G E W V G S C L [SEQ ID NO: 236] | + (Rγc ligand competes with phage binding.) | + (Rγc ligand competes with phage binding.) | + (Rγc ligand competes with phage binding.) | + (Rγc ligand competes with phage binding.) | + (Rγc ligand competes with phage binding.) |  |
|  | − | D C S M W E J G V E L C W [SEQ ID NO: 224] | + (Rγc ligand competes with phage binding.) | + (Rγc ligand competes with phage binding.) | + (Rγc ligand competes with phage binding.) | + (Rγc ligand competes with phage binding.) | + (Rγc ligand competes with phage binding.) |  |
